Assay [1] deals with T1, human FcγRIIaH extracellular domain, C-terminal His-tag (human, UniProt P12318 34-217).
T1 construct: Soluble extracellular domain expressed in FreeStyle 293 cells; also called FcgRIIaH; human FcγRIIa (type H); not shown: His-tag added to the C-terminus
T1 sequence: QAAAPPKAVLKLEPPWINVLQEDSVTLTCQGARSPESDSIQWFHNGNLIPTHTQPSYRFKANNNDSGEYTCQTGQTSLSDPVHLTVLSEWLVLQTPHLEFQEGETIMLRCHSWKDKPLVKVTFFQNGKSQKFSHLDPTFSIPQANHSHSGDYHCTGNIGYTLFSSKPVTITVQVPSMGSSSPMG
The experiment in a line: SPR (BIACORE); KD of SG1 divided by KD of the variant. The method, then:
(§1) The kinetic analysis of interactions between these antibodies and FcγR was carried out using BIACORE® T200 or BIACORE® 4000 (GE Healthcare). HBS-EP+ (GE Healthcare) was used as the running buffer, and the measurement temperature was set to 25° C. A chip produced by immobilizing Protein A. Protein A/G or mouse anti-human IgG kappa light chain (BD Biosciences) onto a Series S Sensor Chip CM4 or CM5 (GE Healthcare) by the amine-coupling method was used. […] After the measurement, the antibody captured on the chip was washed off by allowing reaction with 10 mM glycine-HCl, pH1.5 and 25 mM NaOH so that the chip was regenerated and used repeatedly. The sensorgrams obtained as measurement results were analyzed by the 1:1 Langmuir binding model using the BIACORE® Evaluation Software to calculate the binding rate constant ka (L/mol/s) and dissociation rate constant kd (l/s), and the dissociation constant KD (mol/L) was calculated from these values. […] Regarding such interactions, KD values were calculated using the following 1:1 binding model described in BIACORE® T100 Software Handbook BR1006-48 Edition AE.
(§2) Furthermore, the substitutions used in Example 29 for improving antibody half-life and reducing binding to rheumatoid factor were introduced into human FcγRIIb-enhanced Fc variants and their affinity against human FcγRs were analyzed (Table 29). In this SPR analysis, all the data were obtained using mouse anti-human IgG kappa light chain for capturing the antibodies of interest.

In assay [2] the target is T2, human FcγRIIaR extracellular domain, C-terminal His-tag (human, UniProt P12318 34-217).
T2 construct: Soluble extracellular domain expressed in FreeStyle 293 cells; also called FcgRIIaR; human FcγRIIa (type R); not shown: His-tag added to the C-terminus
T2 chain: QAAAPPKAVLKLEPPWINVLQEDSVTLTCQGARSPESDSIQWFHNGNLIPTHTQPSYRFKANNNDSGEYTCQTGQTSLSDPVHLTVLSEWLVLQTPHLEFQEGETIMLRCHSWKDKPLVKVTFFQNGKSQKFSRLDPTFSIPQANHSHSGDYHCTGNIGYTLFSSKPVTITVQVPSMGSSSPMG
Described as above. The method, then: as §1, §2

The target of assay [3] is T3, human FcγRIIb extracellular domain, C-terminal His-tag (human, UniProt P31994 43-217).
T3 construct: Soluble extracellular domain expressed in FreeStyle 293 cells; also called FcgRIIb; not shown: His-tag added to the C-terminus
T3 sequence: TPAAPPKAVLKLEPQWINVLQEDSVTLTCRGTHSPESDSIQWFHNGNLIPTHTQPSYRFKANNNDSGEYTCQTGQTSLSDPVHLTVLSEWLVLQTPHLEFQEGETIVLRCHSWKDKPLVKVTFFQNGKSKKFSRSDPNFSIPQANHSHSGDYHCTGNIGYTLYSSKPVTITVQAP
The description is as above. As to the method: as §1, §2

The target of assay [4] is T4, human FcγRIIIaV extracellular domain, C-terminal His-tag (human, UniProt P08637 17-208).
T4 construct: Soluble extracellular domain expressed in FreeStyle 293 cells; also called FcgRIIIaV; not shown: His-tag added to the C-terminus
T4 sequence (P08637 17-208 F176V): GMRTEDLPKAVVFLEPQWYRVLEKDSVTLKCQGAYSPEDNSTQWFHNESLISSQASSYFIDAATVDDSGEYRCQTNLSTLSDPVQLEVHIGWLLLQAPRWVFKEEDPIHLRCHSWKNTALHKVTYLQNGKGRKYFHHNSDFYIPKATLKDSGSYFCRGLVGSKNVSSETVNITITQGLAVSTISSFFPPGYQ
The assay is described as above. The method, then:
as §1, §2

Assay [5] has as its target T1, human FcγRIIaH extracellular domain, …. In words: SPR (BIACORE), antibody captured by mouse anti-human IgG kappa light chain, FcgR extracellular domain as analyte, 25 C. The method, then: as §1, §2
A general note: In SPR one partner is held on a chip, and binding of the other changes the refractive index at the surface.

The target of assay [6] is T2, human FcγRIIaR extracellular domain, …. The assay is described as above. As to the method: as §1, §2
Assay [7] has as its target T3, human FcγRIIb extracellular domain, …. Described as above. As to the method:
as §1, §2

Assay [8] has as its target T4, human FcγRIIIaV extracellular domain, …. Described as above. The method, then: as §1, §2

B1: MS103240H795-TT69/M103202L1045-SK1 (antibody)
heavy: QVQLVESGGGLVQPGGSLRLSCAVSGIDLSHDDISWVRQAPGKGLEWVSIISYAGSTYYASWAKGRLTISKDTSKNQVVLTMTNMDPVDTATYYCARGVPAYSHGGDLWGQGTLVTVSSASTKGPSVFPLAPSSKSTSGGTAALGCLVKDYFPEPVTVSWNSGALTSGVHTFPAVLQSSGLYSLSSVVTVPSSSLGTQTYICNVNHKPSNTKVDKKVEPKSCDKTHTCPPCPAPELLGGDSVFLFPPKPKDVLMISRTPEVTCVVVDVSHEDPEVKFNWYVDGVEVHNAKTKPREEQYNSTYRVVSVLPVLHRDWLNGKEYKCKVSNKALPKPIEKTISKAKGQPREPQVYTLPPSREEMTKNQVSLTCLVKGFYPSDIAVEWESNGQPENNYKTTPPVLDSDGSFFLYSKLTVKKSRWQQGNVFSCSVLHEALHAHTTRKELSLSP
light: DIVMTQSPATLSLSPGERATLSCTTSQSVYHENWLSWFQQKPGQPPKLLIYWASTLAYGVPSRFSGSGSGTDFTLTISSLQPEDAATYYCAGGYGGGRYAFGQGTKVEIKRTVAAPSVFIFPPSDEQLKSGTASVVCLLNNFYPREAKVQWKVDNALQSGNSQESVTEQDSKDSTYSLSSTLTLSKADYEKHKVYACEVTHQGLSSPVTKSFNRGEC
notes: copies: 2 + 2
The term Kd denotes the concentration at which binding is half-saturated. Consider B1, for which the “KD fold for humanFcgRs (SG1 = 1)” value in assay [1] amounted to 0.008 fold; in assay [2], 0.04 fold; in assay [3], 4.3 fold; in assay [4], 0.001 fold. The Kd turned out to be 130 µM in assay [5], 34 µM in assay [6], 1.1 µM in assay [7] and 530 µM in assay [8].

B2: MS103240H795-TT70/M103202L1045-SK1 (antibody)
heavy: QVQLVESGGGLVQPGGSLRLSCAVSGIDLSHDDISWVRQAPGKGLEWVSIISYAGSTYYASWAKGRLTISKDTSKNQVVLTMTNMDPVDTATYYCARGVPAYSHGGDLWGQGTLVTVSSASTKGPSVFPLAPSSKSTSGGTAALGCLVKDYFPEPVTVSWNSGALTSGVHTFPAVLQSSGLYSLSSVVTVPSSSLGTQTYICNVNHKPSNTKVDKKVEPKSCDKTHTCPPCPAPELLGGDSVFLFPPKPKDVLMISRTPEVTCVVIDVSHEDPEVKFNWYVDGVEVHNAKTKPREEQYNSTYRVVSVLPVLHRDWLNGKEYKCKVSNKALPKPIEKTISKAKGQRREPQVYTLPPSREEMTKNQVSLTCLVKGFYPSDIAVEWESNGQPENNYKTTPPVLDSDGSFFLYSKLTVDKSRWQQGNVFSCSVMHEALHAHYTRKELSLSP
light: DIVMTQSPATLSLSPGERATLSCTTSQSVYHENWLSWFQQKPGQPPKLLIYWASTLAYGVPSRFSGSGSGTDFTLTISSLQPEDAATYYCAGGYGGGRYAFGQGTKVEIKRTVAAPSVFIFPPSDEQLKSGTASVVCLLNNFYPREAKVQWKVDNALQSGNSQESVTEQDSKDSTYSLSSTLTLSKADYEKHKVYACEVTHQGLSSPVTKSFNRGEC
For the molecule B2, the “KD fold for humanFcgRs (SG1 = 1)” value in assay [1] was determined as 0.013 fold; in assay [2], 0.03 fold; in assay [3], 12.7 fold; in assay [4], 0.002 fold. Moreover, the Kd in assay [5] stood at 72 µM; in assay [6], 40 µM; in assay [7] it was 0.37 µM; in assay [8], 390 µM.

B3: MS103240H795-TT72/M103202L1045-SK1 (antibody)
heavy: QVQLVESGGGLVQPGGSLRLSCAVSGIDLSHDDISWVRQAPGKGLEWVSIISYAGSTYYASWAKGRLTISKDTSKNQVVLTMTNMDPVDTATYYCARGVPAYSHGGDLWGQGTLVTVSSASTKGPSVFPLAPSSKSTSGGTAALGCLVKDYFPEPVTVSWNSGALTSGVHTFPAVLQSSGLYSLSSVVTVPSSSLGTQTYICNVNHKPSNTKVDKKVEPKSCDKTHTCPPCPAPELLGGDSVFLFPPKPKDVLMISRTPEVTCVVIDVSHEDPEVKFNWYVDGVEVHNAKTKPREEQYNSTYRVVSVLPVLHRDWLNGKEYKCKVSNKALPKPIEKTISKAKGQPREPQVYTLPPSREEMTKNQVSLTCLVKGFYPSDIAVEWESNGQPENNYKTTPPVLDSDGSFFLYSKLTVKKSRWQQGNVFSCSVMHEALHAHYTRKELSLSP
light: DIVMTQSPATLSLSPGERATLSCTTSQSVYHENWLSWFQQKPGQPPKLLIYWASTLAYGVPSRFSGSGSGTDFTLTISSLQPEDAATYYCAGGYGGGRYAFGQGTKVEIKRTVAAPSVFIFPPSDEQLKSGTASVVCLLNNFYPREAKVQWKVDNALQSGNSQESVTEQDSKDSTYSLSSTLTLSKADYEKHKVYACEVTHQGLSSPVTKSFNRGEC
notes: copies: 2 + 2
Take B3: the “KD fold for humanFcgRs (SG1 = 1)” value in assay [1] amounted to 0.012 fold; in assay [2], 0.05 fold; in assay [3] it was 11.8 fold; in assay [4], 0.001 fold. Moreover, the Kd in assay [5] was determined as 79 µM; in assay [6], 24 µM; in assay [7], 0.4 µM; in assay [8], 500 µM.

B4: MS103240H795-TT71/M103202L1045-SK1 (antibody)
heavy: QVQLVESGGGLVQPGGSLRLSCAVSGIDLSHDDISWVRQAPGKGLEWVSIISYAGSTYYASWAKGRLTISKDTSKNQVVLTMTNMDPVDTATYYCARGVPAYSHGGDLWGQGTLVTVSSASTKGPSVFPLAPSSKSTSGGTAALGCLVKDYFPEPVTVSWNSGALTSGVHTFPAVLQSSGLYSLSSVVTVPSSSLGTQTYICNVNHKPSNTKVDKKVEPKSCDKTHTCPPCPAPELLGGDSVFLFPPKPKDVLMISRTPEVTCVVIDVSHEDPEVKFNWYVDGVEVHNAKTKPREEQYNSTYRVVSVLPVLHRDWLNGKEYKCKVSNKALPKPIEKTISKAKGQRREPQVYTLPPSREEMTKNQVSLTCLVKGFYPSDIAVEWESNGQPENNYKTTPPVLDSDGSFFLYSKLTVDKSRWQQGNVFSCSVLHEALHAHTTRKELSLSP
light: DIVMTQSPATLSLSPGERATLSCTTSQSVYHENWLSWFQQKPGQPPKLLIYWASTLAYGVPSRFSGSGSGTDFTLTISSLQPEDAATYYCAGGYGGGRYAFGQGTKVEIKRTVAAPSVFIFPPSDEQLKSGTASVVCLLNNFYPREAKVQWKVDNALQSGNSQESVTEQDSKDSTYSLSSTLTLSKADYEKHKVYACEVTHQGLSSPVTKSFNRGEC
Consider B4, for which the “KD fold for humanFcgRs (SG1 = 1)” value was 0.01 fold in assay [1], 0.04 fold in assay [2], 11.2 fold in assay [3] and 0.002 fold in assay [4]. The Kd was found to be 96 µM in assay [5], 27 µM in assay [6], 0.42 µM in assay [7] and 400 µM in assay [8].

The record behind these values is patent publication US20200317768A1 (published 2020).
